The record followed here is patent US20220348651A1 (Novartis, published 2022).

Assay [1] has as its target T1, cyno ENTPD2 expressed on NIH/3T3 cells (cynomolgus macaque, UniProt Q9Y5L3 1-495 (human entry)).
T1 construct: also called NIH3T3 cynoENTPD2; Cyno ENTPD2 NIH/3T3
T1 chain: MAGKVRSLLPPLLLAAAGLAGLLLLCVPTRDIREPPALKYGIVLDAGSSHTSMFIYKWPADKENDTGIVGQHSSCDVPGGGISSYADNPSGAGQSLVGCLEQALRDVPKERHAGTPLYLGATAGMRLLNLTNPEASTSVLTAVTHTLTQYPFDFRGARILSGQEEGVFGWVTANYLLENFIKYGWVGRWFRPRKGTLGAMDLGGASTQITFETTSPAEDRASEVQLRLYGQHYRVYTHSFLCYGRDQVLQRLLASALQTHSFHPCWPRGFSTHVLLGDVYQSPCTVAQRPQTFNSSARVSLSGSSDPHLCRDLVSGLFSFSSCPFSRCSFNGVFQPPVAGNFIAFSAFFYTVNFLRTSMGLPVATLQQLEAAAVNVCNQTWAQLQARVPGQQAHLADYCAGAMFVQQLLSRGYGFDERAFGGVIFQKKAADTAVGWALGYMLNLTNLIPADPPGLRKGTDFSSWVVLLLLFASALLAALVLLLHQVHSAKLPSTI
Nature of the assay: flow cytometry, NIH3T3 cyno ENTPD2 cells. On the technique in general: Flow cytometry measures light scatter and fluorescence of single cells or particles in a stream.

Assay [2] addresses T2, recombinant monomeric mouse ENTPD2 extracellular domain (residues 29-462) with His6 tag (mouse, UniProt O55026 29-462).
T2 sequence: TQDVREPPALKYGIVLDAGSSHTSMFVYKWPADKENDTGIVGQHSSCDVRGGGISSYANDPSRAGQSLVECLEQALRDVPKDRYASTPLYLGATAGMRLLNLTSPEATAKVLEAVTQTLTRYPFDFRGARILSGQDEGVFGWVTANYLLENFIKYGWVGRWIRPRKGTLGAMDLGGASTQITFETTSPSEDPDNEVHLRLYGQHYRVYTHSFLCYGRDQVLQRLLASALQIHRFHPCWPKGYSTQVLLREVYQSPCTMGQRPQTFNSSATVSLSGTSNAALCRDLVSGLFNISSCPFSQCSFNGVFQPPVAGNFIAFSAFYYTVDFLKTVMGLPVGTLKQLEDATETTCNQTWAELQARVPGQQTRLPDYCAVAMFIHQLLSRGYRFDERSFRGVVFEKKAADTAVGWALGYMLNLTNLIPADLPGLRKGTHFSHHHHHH
As to the kind of experiment: SPR Biacore. A general note: Surface plasmon resonance follows binding to a sensor surface in real time, without labels.

In the next assay the target is T3, ENTPD3 of H520 cells (UniProt O75355 1-529, limits assumed).
T3 construct: whole, on cells
T3 sequence (looked up): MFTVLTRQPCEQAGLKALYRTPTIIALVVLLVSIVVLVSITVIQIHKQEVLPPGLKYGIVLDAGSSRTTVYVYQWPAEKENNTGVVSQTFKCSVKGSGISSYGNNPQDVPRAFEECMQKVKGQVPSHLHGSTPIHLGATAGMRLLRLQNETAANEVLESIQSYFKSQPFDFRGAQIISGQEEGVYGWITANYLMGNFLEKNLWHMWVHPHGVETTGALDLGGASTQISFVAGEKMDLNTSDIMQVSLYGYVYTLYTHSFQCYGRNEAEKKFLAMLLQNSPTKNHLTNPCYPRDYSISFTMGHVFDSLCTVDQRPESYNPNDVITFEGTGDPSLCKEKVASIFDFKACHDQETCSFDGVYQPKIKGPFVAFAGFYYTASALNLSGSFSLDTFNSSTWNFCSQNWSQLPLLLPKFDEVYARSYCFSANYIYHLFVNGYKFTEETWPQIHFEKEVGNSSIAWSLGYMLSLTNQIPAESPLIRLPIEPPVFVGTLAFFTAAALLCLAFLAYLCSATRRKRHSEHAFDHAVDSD
Nature of the assay: flow cytometry, H520 cells.

The target of a further assay is T4, ENTPD8 of H520 cells (UniProt Q5MY95 1-495, limits assumed).
T4 construct: whole, on cells
T4 sequence (looked up): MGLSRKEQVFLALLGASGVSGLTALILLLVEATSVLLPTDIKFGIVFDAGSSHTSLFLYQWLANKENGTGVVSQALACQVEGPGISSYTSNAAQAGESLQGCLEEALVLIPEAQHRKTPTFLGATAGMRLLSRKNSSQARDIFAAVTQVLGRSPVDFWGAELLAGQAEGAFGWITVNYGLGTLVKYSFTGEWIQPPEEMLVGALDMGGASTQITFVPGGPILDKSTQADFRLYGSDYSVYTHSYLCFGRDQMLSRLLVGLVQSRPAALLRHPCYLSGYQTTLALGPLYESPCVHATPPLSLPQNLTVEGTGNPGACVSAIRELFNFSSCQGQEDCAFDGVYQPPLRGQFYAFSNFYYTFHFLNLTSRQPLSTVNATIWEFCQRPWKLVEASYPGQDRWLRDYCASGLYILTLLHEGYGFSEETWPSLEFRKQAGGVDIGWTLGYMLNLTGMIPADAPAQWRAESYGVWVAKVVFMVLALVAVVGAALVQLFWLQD
Nature of the assay: flow cytometry, H520 cells.

Assay [3] concerns the target T5, human ENTPD2 expressed on cells (human, UniProt Q9Y5L3 1-495).
T5 construct: full-length human ENTPD2 on engineered cells; also called NIH3T3 humanENTPD2; NIH/3T3-hENTPD2
T5 sequence: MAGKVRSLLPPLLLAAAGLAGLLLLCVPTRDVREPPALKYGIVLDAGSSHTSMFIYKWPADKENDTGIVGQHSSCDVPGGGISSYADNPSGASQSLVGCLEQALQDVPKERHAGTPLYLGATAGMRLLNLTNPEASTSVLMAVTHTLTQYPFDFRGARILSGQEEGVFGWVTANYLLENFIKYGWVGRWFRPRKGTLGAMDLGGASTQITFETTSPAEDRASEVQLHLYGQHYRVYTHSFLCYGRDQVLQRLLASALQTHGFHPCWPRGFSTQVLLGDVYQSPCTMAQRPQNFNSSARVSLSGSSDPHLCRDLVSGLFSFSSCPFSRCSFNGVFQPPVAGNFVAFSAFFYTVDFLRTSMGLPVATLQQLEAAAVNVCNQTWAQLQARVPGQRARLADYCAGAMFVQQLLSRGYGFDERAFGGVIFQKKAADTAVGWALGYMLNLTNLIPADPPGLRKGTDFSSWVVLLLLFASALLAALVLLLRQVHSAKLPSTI
Nature of the assay: flow cytometry, NIH3T3 human ENTPD2 cells.

As usually defined, the EC50 is the concentration needed to bring the measured effect to its halfway point. Lower therefore signals higher potency in that assay. The Kd is the equilibrium constant for the complex coming apart.

B1: ANTI-HUMAN ENTPD2 MAB9 (antibody, human IgG1, lambda, V domains shown)
VH: QVQLVQSGAEVKKPGSSVKVSCKASGGTFDSYAVSWVRQAPGQGLEWMGRIVPWLGHTQYAQKFQGRVTITADESTSTAYMELSSLRSEDTAVYYCARESPGYRYSFDVWDQGTLVTVSS
VL: SYELTQPLSVSVALGQTARITCSGDAIGEKYVYWYQQKPGQAPVLVIYDDNNRPSGIPERFSGSNSGNTATLTISRAQAGDEADYYCASYDLQQARWVFGGGTKLTVLG
notes: also called Anti-ENTPD2 mAb9
On to B1, for which the EC50 in assay [1] was determined as 1.3 nM; in assay [3], 0.6 nM. Moreover, in assay [2], the Kd turned out to be 750 nM. Also, the binding result with ENTPD3 of H520 cells and in the assay with ENTPD8 of H520 cells was “no binding (tested: 50 nM)” each time.

B2: ANTI-HUMAN ENTPD2 MAB10 (antibody, human IgG1, lambda, V domains shown)
VH: QVQLVQSGAEVKKPGSSVKVSCKASGGTFDSYAVSWVRQAPGQGLEWMGRIVPWLGFTRYAQKFQGRVTITADESTSTAYMELSSLRSEDTAVYYCARESPGYRYSFDVWDQGTLVTVSS
VL: SYELTQPLSVSVALGQTARITCSGDAIGEKYVYWYQQKPGQAPVLVIYDDNNRPSGIPERFSGSNSGNTATLTISRAQAGDEADYYCASYDLQQARWVFGGGTKLTVLG
notes: also called Anti-ENTPD2 mAb10
For the molecule B2, the EC50 came to 1.7 nM in assay [1] and 0.8 nM in assay [3]. In addition, the figures for the binding result (in assay [2]; with ENTPD3 of H520 cells; with ENTPD8 of H520 cells) were “binds”, “no binding (tested: 50 nM)” and “no binding (tested: 50 nM)”, respectively.
